Data on seven sequences can be found in a protein production outcome set (Wang et al. 2014).
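Further: failed if final PepcDB status was selected cloned or expressed and not failed if soluble or beyond.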

The data set can be described thus: label from the status in PepcDB records.
Consider “MTPPPAPKTPSTLLRRHLGRAVGAAYLAAATAPGPGMWLRHPHRIAVVGLPDLSLNTAPFLLSLVLFTAGLQVPPRDLGRLVGRPAALLTGLALHLLAPLLIVPGVAFALRQSPDSDGGSGLVAAMILVVAMPVAAGATVWTGAGEGDQSTTVGLVLASTLASPLTVPFTVTALCPLLSADYADTLAGAARIAGSGFALTGVVLPCAAGLVARLALPRRALDALLHAAVPTAALGSLLLTYVNASGVLGPFLTRPRPVLLAAALAVAATVCGLSFALGRITARVLRLDAHAGASVTLACGMNNSSASAVLITTALPDRPQVLLPVLAYGLLQKVAAGRVVRGGHHSGRGA”, for which the protein production result is reported as “failed”.
As for “MTPQSDTPKVTGLKLKRKSRQLEISFDNGQQFTLSCELLRVYSPSAEVHGHGNPVLVTHKKNVNINAITPVGNYAVKLVFDDGHDTGLYSWKVLYDLASNQVDLWENYLARLRAAKASREPLIDMAVKYHT”, the entry is “not failed”; as for “MTPSISLITSYSLLPAILMLIGGGIASLYRPGGSITSATQHFAAGVVFAAVAKELLPKIGAYHDPLALIIGFSVGILAMLFLKWLANRLEDLEQEKTGLSWGLLTAVGIDLLIDGILIGVAFLAGERGGILIAIALAIEIFFLGLSTTATLGARQVNVPIRLLTSVILAILIPVGAALGASLLIHLPLSITNGILSFGVAALLYLVTEELLLEAHGVRETPYITLCFFIGFLLILLLEGLAA”, “failed”; as for “MTPTPLHSITPFSMLDFPSMLSCILWFSGCNLACSYCYNPEFLKESGKIDLEGLLSFLRSRVGLLEGVVFSGGEATLFAGLPLWMEEVRSLGFKIKLDTNGTNPAMLKELLQKGYLDYVAMDFKGKEERFGMITGREFYGRFLESLEILLSSSIPFEIRTTVHSYLLQEEDIAEMAALLKERGYKGAFYLQHFVGEKETLKPLPESRRLKLDEEAIETKIIWR”, “failed”.
As to “MTPVQIAAVVVTYESSSTIDACLSRLRAAEGISEIRVVDNASSDDTLEVVQRHALADARLHFIANPDNPGFATACNQGARDSQAPWLVFINPDLMIARDTLLQLYHRAAGHPAVLLGVEQVDEQGRPDAAVRRRDPDFAAMLRAPRAAANLAVPADPSRALQPVDAISGALMLMQRSLFDRLDGWDGSYRLHAEDLDLCRRARQAGALVAVANDLHVLHVRGVSSRARPFFVEWHKHRGLWRYFRKFEADRRGLLTRLGVWLAIWSHAAAQVPRLLQNKLEHHHHHH”, the protein production result was “failed”.
As for “MTQANLSETLFKPRFKHPETSTLVRRFSHGAQPPVQSALDGKTIPHWYRMINRLMWIWRGIDPREILDVQARIVMSDAERTDDDLYDTVIGYRGGNWIYEWATQAMVWQQKACAEEDPQLSGRHWLHAATLYNIAAYPHLKGDDLAEQAQALSNRAYEEAAQRLPGTMRQMEFTVPGGAPITGFLHMPKGDGPFPTVLMCGGLDAMQTDYYSLYERYFAPRGIAMLTIDMPSVGFSSKWKLTQDSSLLHQHVLKALPNVPWVDHTRVAAFGFRFGANVAVRLAYLESPRLKVVACLGPVVHTLLSDFKCQQQVPEMYLDVLASRLGMHDASDEALRVELNRYSLKVQGLLGRRCPTPMLSGYWKNDPFSPEEDSRLITSSSADGKLLEIPFNPVYRNFDKGLQEITDWIEKRLC”, the entry is “failed”; as for “MTQDASPILTSLLDTDAYKLHMQQAVFHHYRHITVAAEFRCRSDELLGVYADEIRHQVTLMGQLALTSDEFIYLSSLPFFQDDYLHWLRDFRFKPEQVSVAVHDGKLDIRIAGLWCEVIMWEVPLLAVISEIVHRRRSTQVTTDQAVQQLRTKLEQFNALSADIDITHFKLMDFGTRRRFSREIQHTVVSTLKDEFPYLVGTSNYDLARTLALAPVGTQAHEWFQAHQQISPTLANSQRVALQVWLDEYPNQLGIALTDCITMDAFLRDFDLAFANRYQGLRHDSGDPIEWGEKAIAHYEKLGIDPMKKVLVFSDNLDLEKALFLYRHFYQRIKLVFGIGTRLTCDIPDVKPLNIVIKLVECNDKPVAKLSDSPGKTICQDPAFVDQLRKAFALPLVKKAS”, “not failed”.
